{
  "source": "paper PMC3774783",
  "biological_target": "HCoV-OC43 N WT (Human coronavirus OC43, UniProt P33469 1-448)",
  "sequence (P33469 whole entry)": "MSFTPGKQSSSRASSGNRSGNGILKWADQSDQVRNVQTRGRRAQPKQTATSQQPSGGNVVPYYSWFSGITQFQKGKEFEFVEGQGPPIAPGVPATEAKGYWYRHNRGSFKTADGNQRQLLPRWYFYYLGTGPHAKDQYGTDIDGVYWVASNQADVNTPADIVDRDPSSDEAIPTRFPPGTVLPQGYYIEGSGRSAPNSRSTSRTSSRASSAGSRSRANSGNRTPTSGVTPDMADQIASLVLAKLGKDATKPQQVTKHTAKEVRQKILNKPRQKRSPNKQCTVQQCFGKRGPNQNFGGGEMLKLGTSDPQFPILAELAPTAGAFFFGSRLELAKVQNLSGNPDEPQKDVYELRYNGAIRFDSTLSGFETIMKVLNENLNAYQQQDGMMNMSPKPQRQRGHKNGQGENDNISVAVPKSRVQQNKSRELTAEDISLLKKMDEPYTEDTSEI",
  "assay": "SPR",
  "data": [
    {"binder": "UCUAAACUCUAAACUCUAAACUCUAAAC (ssRNA)", "note": "[(UCUAAAC)4 28-mer]", "values": [
      {"measurement": "Kd", "value": "11.7 ± 0.82", "unit": "nM"}
    ]}
  ]
}
